In paper PMC4464616, “SIRT6 protein deacetylase interacts with MYH DNA glycosylase, APE1 endonuclease, and Rad9–Rad1–Hus1 checkpoint clamp” (BMC Molecular Biology, 2015):
Blank lines part the entries; values can stand above or below the binder they belong to.

B4: FLAG-tagged mouse Sirt6 (FLAG-mSirt6), wild type (natural protein, UniProt P59941 1-334, looked up)
chain: MSVNYAAGLSPYADKGKCGLPEIFDPPEELERKVWELARLMWQSSSVVFHTGAGISTASGIPDFRGPHGVWTMEERGLAPKFDTTFENARPSKTHMALVQLERMGFLSFLVSQNVDGLHVRSGFPRDKLAELHGNMFVEECPKCKTQYVRDTVVGTMGLKATGRLCTVAKTRGLRACRGELRDTILDWEDSLPDRDLMLADEASRTADLSVTLGTSLQIRPSGNLPLATKRRGGRLVIVNLQPTKHDRQADLRIHGYVDEVMCRLMKHLGLEIPAWDGPCVLDKALPPLPRPVALKAEPPVHLNGAVHVSYKSKPNSPILHRPPKRVKTEAAPS
notes: mouse Sirt6, full length cDNA in pcDNA3.1; about 90% pure

Tests used:
[1] = target: B4; test: pull-down; GST fusion protein immobilised on beads; 50 ug/ml ethidium bromide added for 30 min before the partner; bound protein detected by Western blot (FLAG, hAPE1 or His antibody); in some panels a further purified partner (hAPE1, mSirt6, hHus1) was added; conditions: both partners purified
GST-hMYH(1-350) = target: T1, GST-hMYH(1-350) (human, UniProt Q9UIF7-3 1-350); test: as above; conditions: both partners purified
T1 construct: also called MYHΔC3; ΔC3; source: purified, immobilised on beads
T1 sequence (looked up): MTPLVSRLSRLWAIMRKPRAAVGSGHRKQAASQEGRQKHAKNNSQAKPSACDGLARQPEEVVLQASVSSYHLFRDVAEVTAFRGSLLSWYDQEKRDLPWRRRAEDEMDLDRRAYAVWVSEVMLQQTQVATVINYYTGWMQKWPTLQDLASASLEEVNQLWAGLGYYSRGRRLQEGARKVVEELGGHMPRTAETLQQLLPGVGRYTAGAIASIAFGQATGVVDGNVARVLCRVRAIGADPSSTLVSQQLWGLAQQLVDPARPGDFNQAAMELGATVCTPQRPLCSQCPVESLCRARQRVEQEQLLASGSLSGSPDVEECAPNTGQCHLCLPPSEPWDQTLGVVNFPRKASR

GST-hMYH(1-350) Q324H = target: T2, GST-hMYH(1-350) Q324H (human, UniProt Q9UIF7-3 1-350, Q324H); test: as above; conditions: both partners purified
T2 construct: human MutY homolog (MYH, MUTYH), residues 1-350 with Q324H, a variant found in MAP patients; also called hMYH^Q324H; Q338H according to the new nomenclature; source: purified, immobilised on beads
T2 sequence (looked up): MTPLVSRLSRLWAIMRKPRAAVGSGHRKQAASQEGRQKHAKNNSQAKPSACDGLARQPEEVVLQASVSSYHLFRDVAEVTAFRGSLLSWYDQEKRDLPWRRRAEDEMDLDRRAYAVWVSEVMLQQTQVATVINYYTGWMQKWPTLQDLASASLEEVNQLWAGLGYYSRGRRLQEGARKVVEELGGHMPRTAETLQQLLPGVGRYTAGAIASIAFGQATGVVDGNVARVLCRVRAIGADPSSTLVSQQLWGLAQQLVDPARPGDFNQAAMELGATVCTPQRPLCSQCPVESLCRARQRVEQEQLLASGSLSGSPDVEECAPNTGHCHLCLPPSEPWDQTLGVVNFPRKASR

GST-hRad9 = target: T3, GST-hRad9 (human, UniProt Q99638 1-391); test: as above; conditions: both partners purified
T3 construct: human Rad9, subunit of the Rad9-Rad1-Hus1 checkpoint clamp; also called GST-Rad9; GST-tagged hRad9; source: immobilised on beads
T3 sequence (looked up): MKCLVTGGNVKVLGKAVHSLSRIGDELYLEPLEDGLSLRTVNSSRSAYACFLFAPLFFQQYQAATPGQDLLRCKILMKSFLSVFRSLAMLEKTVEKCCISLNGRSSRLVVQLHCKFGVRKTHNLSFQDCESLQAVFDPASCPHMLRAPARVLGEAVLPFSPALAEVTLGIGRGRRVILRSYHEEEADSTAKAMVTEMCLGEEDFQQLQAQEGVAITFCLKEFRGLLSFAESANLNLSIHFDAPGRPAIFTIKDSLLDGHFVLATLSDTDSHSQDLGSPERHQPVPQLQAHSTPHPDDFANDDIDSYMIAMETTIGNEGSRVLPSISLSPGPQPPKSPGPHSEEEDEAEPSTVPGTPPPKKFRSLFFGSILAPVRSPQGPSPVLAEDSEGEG

[2] = target: T4, mouse Myh (mMyh), recombinant (mouse, UniProt Q99P21 1-515); test: cell-based or functional assay
T4 sequence (looked up): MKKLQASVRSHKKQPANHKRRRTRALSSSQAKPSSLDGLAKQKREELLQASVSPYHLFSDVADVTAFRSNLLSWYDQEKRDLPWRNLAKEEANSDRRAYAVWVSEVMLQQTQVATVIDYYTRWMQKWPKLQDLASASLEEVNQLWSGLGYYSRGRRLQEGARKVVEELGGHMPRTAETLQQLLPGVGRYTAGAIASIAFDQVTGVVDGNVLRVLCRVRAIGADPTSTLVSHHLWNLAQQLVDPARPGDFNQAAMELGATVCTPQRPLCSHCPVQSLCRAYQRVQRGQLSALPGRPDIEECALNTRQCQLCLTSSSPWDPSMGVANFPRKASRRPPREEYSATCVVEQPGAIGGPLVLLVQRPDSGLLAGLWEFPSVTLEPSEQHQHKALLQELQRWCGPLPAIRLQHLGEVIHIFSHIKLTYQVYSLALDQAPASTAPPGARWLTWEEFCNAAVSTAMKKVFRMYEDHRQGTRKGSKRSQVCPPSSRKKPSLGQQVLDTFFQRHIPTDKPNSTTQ

[3] = target: human APE1 (hAPE1), recombinant (human, UniProt P27695 1-318); test: cell-based or functional assay
Chain of human APE1 (hAPE1), recombinant (P27695 whole entry): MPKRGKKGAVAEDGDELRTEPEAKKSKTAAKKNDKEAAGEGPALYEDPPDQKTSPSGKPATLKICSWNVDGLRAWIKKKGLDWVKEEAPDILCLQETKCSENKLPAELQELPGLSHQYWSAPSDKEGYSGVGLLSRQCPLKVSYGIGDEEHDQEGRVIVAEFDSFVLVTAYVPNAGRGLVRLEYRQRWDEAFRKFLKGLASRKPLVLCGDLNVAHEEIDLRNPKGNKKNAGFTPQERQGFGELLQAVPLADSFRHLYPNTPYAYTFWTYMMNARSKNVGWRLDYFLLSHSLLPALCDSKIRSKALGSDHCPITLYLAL

binding result [1]: binds
B1: GST-hRad1 (natural protein, human, UniProt O60671 1-282, looked up)
chain: MPLLTQQIQDEDDQYSLVASLDNVRNLSTILKAIHFREHATCFATKNGIKVTVENAKCVQANAFIQAGIFQEFKVQEESVTFRINLTVLLDCLSIFGSSPMPGTLTALRMCYQGYGYPLMLFLEEGGVVTVCKINTQEPEETLDFDFCSTNVINKIILQSEGLREAFSELDMTSEVLQITMSPDKPYFRLSTFGNAGSSHLDYPKDSDLMEAFHCNQTQVNRYKISLLKPSTKALVLSCKVSIRTDNRGFLSLQYMIRNEDGQICFVEYYCCPDEEVPESES
notes: human Rad1, subunit of the Rad9-Rad1-Hus1 checkpoint clamp; also called GST-Rad1; GST-tagged hRad1; source: immobilised on beads

binding result [1]: binds
B2: GST-hMYH(65-350) (domain or fragment, human, UniProt Q9UIF7-3 65-350, looked up)
chain: ASVSSYHLFRDVAEVTAFRGSLLSWYDQEKRDLPWRRRAEDEMDLDRRAYAVWVSEVMLQQTQVATVINYYTGWMQKWPTLQDLASASLEEVNQLWAGLGYYSRGRRLQEGARKVVEELGGHMPRTAETLQQLLPGVGRYTAGAIASIAFGQATGVVDGNVARVLCRVRAIGADPSSTLVSQQLWGLAQQLVDPARPGDFNQAAMELGATVCTPQRPLCSQCPVESLCRARQRVEQEQLLASGSLSGSPDVEECAPNTGQCHLCLPPSEPWDQTLGVVNFPRKASR
notes: also called MYHΔC5; ΔC5; source: purified, immobilised on beads

binding result (GST-hMYH(1-350)): binds
B3: His-tagged human Hus1 (hHus1) (natural protein, UniProt O60921 1-280, looked up)
chain: MKFRAKIVDGACLNHFTRISNMIAKLAKTCTLRISPDKLNFILCDKLANGGVSMWCELEQENFFNEFQMEGVSAENNEIYLELTSENLSRALKTAQNARALKIKLTNKHFPCLTVSVELLSMSSSSRIVTHDIPIKVIPRKLWKDLQEPVVPDPDVSIYLPVLKTMKSVVEKMKNISNHLVIEANLDGELNLKIETELVCVTTHFKDLGNPPLASESTHEDRNVEHMAEVHIDIRKLLQFLAGQQVNPTKALCNIVNNKMVHFDLLHEDVSLQYFIPALS
notes: human Hus1, subunit of the Rad9-Rad1-Hus1 checkpoint clamp; pET21a usually adds a C-terminal His6 (surmise); source: E. coli BL21-Star with pET21a-hHus1, purified

Binder: B4
fold stimulation of binding with a tenfold excess of hAPE1, against no hAPE1 (GST-hMYH(1-350)): 3 fold | binding result (GST-hMYH(1-350) Q324H): binds | binding result (GST-hRad9): binds | mMyh glycosylase activity on FAM-labeled A/G^o-DNA (0.5 nM mMyh, 1-32 nM mSirt6); fold stimulation at a Sirt6/Myh ratio of 32 [2]: 3 fold | 3'-phosphodiesterase activity of hAPE1 on 3'-FAM-labeled U/G-DNA (0.01 nM hAPE1, 1-16 nM mSirt6); fold stimulation at a Sirt6/APE1 ratio of 400 [3]: 2 fold | AP endonuclease activity of hAPE1 on FAM-labeled THF/G-DNA (0.002 nM hAPE1, 1-8 nM mSirt6); fold stimulation at a Sirt6/APE1 ratio of 3,000 [3]: 2 fold
